One block for each binder: values may come before it.
Key:
hENG(458-586)-hFc = target: T1, hENG(458-586)-hFc (human, UniProt P17813 458-586); assay: SPR, captured hENG-hFc, soluble ligand
T1 construct: Expressed in COS cells, not purified; not shown: human IgG1 Fc domain
T1 sequence: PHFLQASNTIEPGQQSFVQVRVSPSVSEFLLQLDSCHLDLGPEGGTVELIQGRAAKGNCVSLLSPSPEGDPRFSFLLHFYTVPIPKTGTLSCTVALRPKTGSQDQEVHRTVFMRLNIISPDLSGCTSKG

hENG(458-581)-hFc = target: T2, hENG(458-581)-hFc (human, UniProt P17813 458-581); assay: SPR, captured hENG-hFc, soluble ligand
T2 construct: Expressed in COS cells, not purified; not shown: human IgG1 Fc domain
T2 sequence: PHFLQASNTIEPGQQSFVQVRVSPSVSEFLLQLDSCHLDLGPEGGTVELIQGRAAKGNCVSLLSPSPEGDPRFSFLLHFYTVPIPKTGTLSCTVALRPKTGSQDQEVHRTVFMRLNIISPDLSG

hENG(26-581)-hFc = target: T3, hENG(26-581)-hFc (human, UniProt P17813 26-581); assay: SPR, captured hENG-hFc, ligand at 100 nM; ++++ = KD < 1 nM
T3 construct: not shown: human IgG1 Fc domain
T3 sequence: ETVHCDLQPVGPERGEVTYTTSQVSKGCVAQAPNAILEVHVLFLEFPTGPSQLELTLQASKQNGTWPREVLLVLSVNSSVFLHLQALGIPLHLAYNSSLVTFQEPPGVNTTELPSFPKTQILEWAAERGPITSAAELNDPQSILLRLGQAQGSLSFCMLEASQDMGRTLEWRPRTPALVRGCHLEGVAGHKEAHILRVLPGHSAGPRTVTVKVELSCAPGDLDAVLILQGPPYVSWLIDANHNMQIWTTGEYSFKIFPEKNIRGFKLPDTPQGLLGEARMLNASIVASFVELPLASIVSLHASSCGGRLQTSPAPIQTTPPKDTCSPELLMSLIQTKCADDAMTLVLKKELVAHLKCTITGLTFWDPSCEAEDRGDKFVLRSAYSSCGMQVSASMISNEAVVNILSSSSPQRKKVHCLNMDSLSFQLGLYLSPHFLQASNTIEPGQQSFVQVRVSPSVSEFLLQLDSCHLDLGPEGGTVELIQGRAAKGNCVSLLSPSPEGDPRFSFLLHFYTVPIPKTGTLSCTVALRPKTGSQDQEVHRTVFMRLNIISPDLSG

[1] = target: T4, hENG(26-586) (R&D Systems, catalog #1097-EN) (human, UniProt P17813 26-586); assay: SPR competition in solution: 0-50 nM hENG(26-586) premixed with 10 nM BMP-10, binding of BMP-10 to captured ALK1-hFc read out
T4 construct: also called soluble human ENG extracellular domain
T4 sequence: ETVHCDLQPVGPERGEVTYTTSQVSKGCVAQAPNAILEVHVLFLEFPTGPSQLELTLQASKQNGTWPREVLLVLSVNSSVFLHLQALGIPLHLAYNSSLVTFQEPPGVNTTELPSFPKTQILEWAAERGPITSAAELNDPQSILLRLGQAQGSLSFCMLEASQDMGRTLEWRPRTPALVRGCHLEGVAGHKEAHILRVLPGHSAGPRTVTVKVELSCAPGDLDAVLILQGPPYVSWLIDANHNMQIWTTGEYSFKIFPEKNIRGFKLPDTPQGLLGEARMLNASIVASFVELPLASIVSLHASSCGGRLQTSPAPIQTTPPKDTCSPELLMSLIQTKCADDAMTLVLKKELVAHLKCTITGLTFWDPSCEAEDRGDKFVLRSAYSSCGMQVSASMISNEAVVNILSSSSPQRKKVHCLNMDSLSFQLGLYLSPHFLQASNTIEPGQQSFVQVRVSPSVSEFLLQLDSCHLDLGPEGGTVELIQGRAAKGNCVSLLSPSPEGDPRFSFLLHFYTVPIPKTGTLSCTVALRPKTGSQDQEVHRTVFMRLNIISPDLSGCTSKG
Description: (§1) BMP-9 and BMP-10 are high-affinity ligands at the type I receptor ALK1 (activin receptor-like kinase 1). […] Similar results were obtained with BMP-10 (FIG. 21).

[2] = target: T4, hENG(26-586) (R&D Systems, catalog …); assay: SPR competition in solution: 0-50 nM hENG(26-586) premixed with 10 nM BMP-9, binding of BMP-9 to captured ALK1-hFc read out
Description: as §1

- binding result (hENG(458-586)-hFc): no binding (tested: 100 nM)
- binding result (hENG(458-581)-hFc): no binding (tested: 100 nM)
- binding result (hENG(26-581)-hFc): binds
- binding result [1]: binds
B1: human BMP-10 (ligand, UniProt O95393 317-424, looked up)
chain: NAKGNYCKRTPLYIDFKEIGWDSWIIAPPGYEAYECRGVCNYPLAEHLTPTKHAIIQALVHLKNSQKASKACCVPTKLEPISILYLDKGVVTYKFKYEGMAVSECGCR
notes: also called hBMP-10

- binding result (hENG(458-586)-hFc): no binding (tested: 100 nM)
- binding result (hENG(458-581)-hFc): no binding (tested: 100 nM)
- binding result (hENG(26-581)-hFc): binds
- binding result [2]: binds
B2: human BMP-9 (ligand, UniProt Q9UK05 320-429, looked up)
chain: SAGAGSHCQKTSLRVNFEDIGWDSWIIAPKEYEAYECKGGCFFPLADDVTPTKHAIVQTLVHLKFPTKVGKACCVPTKLSPISVLYKDDMGVPTLKYHYEGMSVAECGCR
notes: also called hBMP-9
